Experiment: label from the status in PepcDB records
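Further: failed if final PepcDB status was selected cloned or expressed and not failed if soluble or beyond.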

Q: For “MMKTQAEINKRLDAYRKGTVDSPYRVKVWTSYDNRFYPMEPGCIDVDKSFHAQCADLTIDYILWLTDNEFRIRGNAKDAINPKKNKLPEGWKIVLNRPSTVPRKGWIAVFTDGTYWEYGHIGMVYDGGNTSRFQILEQNWNGWANKKPSLRWDNYYGLTHFIVPPVAKENKAVSSSKQQAPKQKVKKASTKKALPKITKHITGYNMDKRGYNPKGVVLHNDAGGMNYKQYYNNLVNANYDRLARGIAHAYVDRTGIWEAIDESRIAWHVADGTRPGSGNHDFYGIEVNQSLRASDKEFLENEQAVFQFAAEKLKKWGLPANRNTVRLHNEFSQTSCPHRSMVLHTGLDPLYHSITEHARLKLKDYFIKQIRAYMDGKKPTSKVVVSKPGSASTPATRKDANGYRENPHGTLYKEEHATFTANANIITRYVGPFTNMPQAGILKAGQTIIYDEVMKQDGYIWVGYTAYNGKRVYLPVRKWNRETDSVGKLWGVIS”, which protein production is on record?
A: failed

Q: With “MMKVLLLEDVKNLGKAGEVCEVKDGYGNNFLIANQKAKLATNEVINKYKAEVKKKAEKEALEKAQKLQMVETLQTITLTIHKKVGANGSLFGAITKEEITERLKEQHASLNLDKKDIELKHPIKSTGIYEIEVKLGSGVVGVFKIDVVAE” as the sequence, how does the protein production read?
A: failed

Q: With “MMLDALQANGLMQILLLTLMAGLAMPVGAALASVERIHPRWLETEVRHSVIAFGGGALLAAVALVLVPEGTANLPMVGIVVCFAGGGISFMLLDRWLAANGTPASQLVAMLSDFVPEAMALGATFSVSSEGGILLAGIIALQNIPEGFNSYRELVDATHYRGLKIVGALALMALLGPVAGALGYFLLSDAPSVVSGIMLFAAGGILYIIFQDIAPQVRLKKHWAPPLGALAGFLLGVMGEVALSG” as the sequence, how does the protein production read?
A: failed

Q: For “MMLNRKDADYYLGKEIMLARIRRGALIPAKVNEEHFWLLIGISSIHSEKIIQALRDYLVFGVSRKDVCERYEVNNGYFSTSLNRLSRISQAAAQMVVYYSLEHHHHHH”, which protein production is on record?
A: not failed

Q: For “MMLRFSVITYTFGRLTTKKHNKVMKKLIFLFAFCLTVTNIFAQTDPSQLKKEGSDAFNAKNYPVAYAKFSEYLKQTNNQDSAIAYYCGMAADEVKKYAEAVTFFDIAIQKKFNIGNAYARKALALDAMKKTDEYVATLEEGLKVDPDNKTMIKNYGLHYLKAGIAAQKAGKVEEAEECFKKVIPLDHKTYKTNALYSLGVLCYNDGANILKKAAPLANSDADKYAAEKEKADGRFKEAIGYLEEATKVSPEDTKSKTMLSQVQAAMK”, which protein production is on record?
A: failed

Q: Which protein production does the source give for “MMLSMNRELIYLMLIFALLVIPRALQRFMVPAPLTCLLFGIGTMLVMGGKPHDDVIVLLSTLGISSLFLFAGLEVDLKALRRELWPLGVHLLVYSVALFCLGWLVWRYVGLTWQVAGLLALALLTPSPGFIIDSIGRLGLNEHERFWVVNKAIASELLALTVLFFVLQASDPWQMALSSGVLVALFVCLPLLFVALDRWVVPQAPGSEFSLLVMVGMIAAYATYKIGVYYLVGAFITGLIARLLHQRMPHLASEENLNAVRLFASFFVPFYFFRAGTNVSPQALSFEALGLGILITMVVLPLRIAVIWVQRRVLFGKGEDFRSSLRVSLALVPTLIFTLVLAGILRDRFSISEVLFGALLLYAAFTTLLPSLIFRLLSAWGVPSRSGDQASRETLPSSGMAG” here?
A: failed

Q: With “MMLTMGMLERYVLKRTMGALVGALAVLSAMVMLIAFVDIARNVGTRADASFLRLLYLTILQAPATILVLAPFIFLFGTMWAFVELNRRSELIAMRAAGISAWRFIMPAAASSFVIGLLTITLLNPLTTAMTAKFETERDRTMNGYLKEAPKGTWLRQGDDKTQIVIRARARELVDGSVRLRGVSLFVYTLNAKGVMDFTRRIEANEARLEPGFWRLSGVREATPGAGAIRSDSLSIPSNLDDRTASERFNTPQAVALWRLPATIQRTADAGFSAVPFKLRLQQDLATPLLFAAMSVLAAAFSLRLMRLGGLAMLAGSGVALGFGFFFFNELCSTLGRADVLAPFVAAWTPPTVALLVGFTLLCYTEDG” as the sequence, how does the protein production read?
A: failed

Q: Which protein production does the source give for “MMMKIGDKLKGKITGIKPYGAFVQLENGSIGLIHISEIKTGYIDNIYQTLSVGQEVLVQVVDYDEYSQKASLSLRTLEEEKHHYQHRHRFSNNRLNIGFKPLEEHLPIWVEENLDYLKKDQDESDNQAKD” here?
A: failed

Q: Which protein production does the source give for “MMMLNPSNGGIEGEKMKKKAKVVVIMGPTGSGKSKLAVDLASHFPVEIINADAMQIYSGLDVLTNKVTVDEQKGVPHHLLGTVSSDMEFTARDFRDFTVPLIEEIVSRNHIPVLVGGTHYYIQAVVSKFLLDDAAEDTEECCADVASVVDQDMVVESVFGRDDLSHGYELLKELDPVAANRIHPNNHRKINQYLSLHASRGVLPSKLYQGKTAENWGCINASRFDYCLICMDAETAVLDRYVEQRVDAMVDAGLLDEVYDIYKPGADYTRGLRQSIGVREFEDFLKIHLSETCAGHLTSLSNDDKVMKENLRKILNFPKDDKLRIMLEEAIDRVKLNTRRLLRRQKRRVSRLETVFGWNIHYIDATEYILSKSEESWNAQVVKPASEIIRCFLETETESGRDPTSGKSIERDLWTQYVCEACGNKILRGRHEWEHHKQGRTHRKRTTRHKNSQTYKNREVQEAEVN” here?
A: failed

Q: For “MMMMRAFIAENVRGIYAFDEDGKLVGKRYFTDKPEKILDGLLKGELVKDLEEFLNELREKGYDEFIFEHPELSRKAKELGFNATTEFPNLAGERLRSNPEEFLGENWFDDYYNVGVALTRMRIQEQSGARDKMVIQAIEALDDVDKVINLLVSRLREWYSLHFPELDEILPRHPQYVAFVKAIGHRDNVDEEKLRELGLSDEKIKKIIEAKEKTMGAWMDETDIAIVQHFAEEIDRLYKLRKELEDYIDKAMDDVAPNLKALVGAKLGARLISLAGGLKELAMLPSSTIQVLGAEKALFRHLRTGAKPPKHGVIYQYPAINRSPWWQRGKIARALAGKLAIAARVDYFSGEYIAEELKKELEARIKEIKEKYPRPPKRRKEERKGRKPWKEKKKKKKKKKGGRRLEHHHHHH”, which protein production is on record?
A: failed

Q: For “MMMTRSWAAGGSAVLLALLLGGTITSAHAQSADLVLCDRIAADPADPDKPADVKGVTEIAPGDVSTAIKYCRVASAGSRRAMYGLGRAYAAGGQTAEALAAYRKAADKGSSAAMVELGVAYATGVGLPKDDAKARQLLERAAAAGNPRGISNLAALGGGASSDPVKTRALLAKGAESNAEAQYQLGMMMADGIGGPKDDAGARALFEKAAGQGHPGALMQMGAFAQAGRGGPKDSDAAKAYYEKAAALGNADAKAALKRSDCPYVLKDKRGNMVTNLCF”, which protein production is on record?
A: failed

Q: With “MMNGENMDKQTVIGFVVLFCVLELVFYLKKLYQSMALTLAVFGIFSLLFFLLYIPVLSKKAVPYVINYFKPPHQRVREIKVGSDETTDNSIIRLKEKAKTLHPDEGNRISGRSSNSFKDSASCIITIVDDSN” as the sequence, how does the protein production read?
A: failed

Q: For “MMNTITNIVSYLPYLFAWFLLGYMGIVVLVYTGMLLLSVVQLKREQKLNKQEVYDDYLELTYTKPVSILVPAYNEETGIIETVRSLLSLKYPQTEIVVVNDGSTDQTLEVIIEHFQMVKVGKVIRKQIETEPIKGVYQSTIFPHLLLVDKSNGGKADALNAGLNVSKYPYFCSIDGDSILETDALLKVMKPIVTSRDDEDEVIASGGNVRIANGSDIQMGSVLSVQLAKNPLVVMQVIEYLRAFLMGRIGLSRHNMVLIISGAFSVFAKKWVMEAGGYSKKTVGEDMELVVRLHRLVKEKRLKKRITFVPDPVCWTEAPATFRVLQRQRSRWHRGLMESLWLHRGMTFNPKYGLVGTASIPYFWIVEFFGPVVELMGYLYIVFAFFFGGLYVEFALALFLLFVLYGTVFSMTAVILEGWSLKRYPKVSDMSRLMIFSLFEALWYRPLTVLWRFGAIIEALFRSKAWGEMTRKGLTKAEQKAS”, which protein production is on record?
A: failed

Q: For “MMNYNTPKVSIVVPSLNSISYIRECIDSILNQTLKDIEILCIDANSTDGTLEVLKNYEKKDKRLRVIISDKKSYGYQMNLGIKEAKGEYLGIVESDDYIKTNMYERLYEIAKKNDCEVVKGDFYIFAYGKTEYVNVLRNSCEDIYNYKVNWNKDIRIFLGSDGINPIGIYRLDLLRTNQIKLNETPGASYQDNGLWFQIFALAKSIYFINEAFYMLRRDNPNSSVKSKEKVYCACEEYDFIRDFLKKHPDLEKTLAPICALHRFGNYMFTLERIDERYKLDFLKRFSQDFRKILKDKELDENLFGNINMQRINKIIENPVIYYYFSRGARARLQNQLVYRLGKVVVEAKSFNKIIKLPFLMLKICLEHNFEHKVYRSIVQFRPDLKLLPLECYLDYHEALVIKEHLSYKFGKLILLSFKGWYKGKIFILPFMLKKRYKEYKNKMILEHHHHHH”, which protein production is on record?
A: failed

Q: With “MMPKRFNTSGFDTTLRLPSYYGFLHLTQSLTLNSRVFYGARHVTPPAIRIGSNPVQSLLLFRAPTQLTGWNRSSRDLLGRRVSFSDRSDGVDLLSSSPILSTNPNLDDSLTVIALPLPHKPLIPGFYMPIHVKDPKVLAALQESTRQQSPYVGAFLLKDCASTDSSSRSETEDNVVEKFKVKGKPKKKRRKELLNRIHQVGTLAQISSIQGEQVILVGRRRLIIEEMVSEDPLTVRVDHLKDKPYDKDNAVIKASYVEVISTLREVLKTNSLWRDQDIGDFSYQHLADFGAGISGANKHKNQGVLTELDVHKRLELTLELVKKQVEINKIKETDDGSSLSAKIRVRIDTKRDKIPKHVIKVMEEEFTKLEMLEENYSDFDLTYNYLHWLTVLPWGNFSYENFDVLRAKKILDEDHYGLSDVKERILEFIAVGRLRGTSQGKIICLSGPPGVGKTSIGRSIARALDRKFFRFSVGGLSDVAEIKGHCQTYVGAMPGKMVQCLKSVGTANPLILFDEIDKLGRCHTGDPASALLEVMDPEQNAKFLDHFLNVTIDLSKVLFVCTANVIEMIPGPLLDRMEVIDLSGYVTDEKMHIARDYLVKKTCRDCGIKPEHVDLSDAALLSLIENYCREAGVRNLQKQIEKIYRKVALELVRQGAVSFDVTDTKDTKSLAKTDSEVKRMKVADIMKILESATGDSTESKTKQSGLVAKTFEKVMIDESNLADYVGKPVFQEEKIYEQTPVGVVMGLAWTSMGGSTLYIETTFVEEGLGKGGLHITGQLGDVMKESAQIAHTVARRIMFEKEPENLFFANSKLHLHVPEGATPKDGPSAGCTMITSFLSLAMKKLVRKDLAMTGEVTLTGRILPIGGVKEKTIAARRSQIKTIIFPEANRRDFEELAENMKEGLDVHFVDEYEKIFDLAFNYDH” as the sequence, how does the protein production read?
A: failed

Q: Which protein production does the source give for “MMQKPITEIIIVGGGTAGWITAGLLAAEHNVDKGVLAHSPKLNITLIESPDVATIGVGEGTWPSMRSTLSKIGIDENDFIRQCDASFKQGSRFINWCKDPQSNVADSYLHPFSLPHGHQELDLCPYWLPHAEQVSFAEAVCSQQVLTQLGLAPKSIVTAQYHFQNNYGYHLNAAKFSQLLTEHCTQKLGVTHIRDHVSQIINNQHGDIEKLITKQNGEISGQLFIDCTGAKSLLLGEHLQVPFLSQKSVLFNDRALAIQVPYSDANSPIASCTHSTAQPNGWIWDIGLPTRKGVGYVYSSSHTNDIDAQKTLFNYLGVDGAAADKLEPRQLAINPGYRAKCWQNNCIAIGMAAGFIEPLEASALALIEWTASTLAQQLPPNRMVMDTISARVNERYQQHWQQIIDFLKLHYVISQRQEDRYWRDHRESNSIPDSLQAMLELWRYQTPSQQDISYKEALFPAASFQYVLYGMSFNTQLPTHVKPSMQQLAQRLFNDNQQRTQALSKNLPTNRELLDKVAQYGFPKL” here?
A: not failed

Q: With “MMRAWIQLVIAIGVEIVGTSLLKLSSGFKYPLIGIVGMLLYGLAIFSFSRALSKIPLSVGYAIWAGVGTAATGLIGIWAFGEILTGLKTLGFMAIITGVILLNMPAKTTKSTTATPRSARWRTRFNR” as the sequence, how does the protein production read?
A: failed

Q: For “MMRIGLFLLTNLAVLVVAGIILSLFGVGSYHGAGGLNLGNLLVICFVFGMVGSLISLLMSKWMAKKTTGTEIIDPNAPRNQAEAWLLQTVAELSQRAGIQMPEVGIFPSYQSNAFATGWNKNDALVSVSTGLMERMNKDELRAVLAHEIGHVANGDMVTLALIQGVVNAFVMFFARVVGDFIDRNVFGRQDGEAPGMGYFAITIVLDIVFGILASAIVMWFSRHREYRADEAGARLAGKQAMISALLRLQAESEMPDQMPKEMKAFAIAEGKEQGFSLAALFQTHPSIEQRVAALQQLNCP”, which protein production is on record?
A: failed

— a protein production outcome set (Wang et al. 2014)
